Read-outs that look alike come from different tables or passages of the source.
T1: BKV serotype I infectious virus (VP1) (BK virus serotype I, UniProt P03088 1-362)
T1 sequence (looked up): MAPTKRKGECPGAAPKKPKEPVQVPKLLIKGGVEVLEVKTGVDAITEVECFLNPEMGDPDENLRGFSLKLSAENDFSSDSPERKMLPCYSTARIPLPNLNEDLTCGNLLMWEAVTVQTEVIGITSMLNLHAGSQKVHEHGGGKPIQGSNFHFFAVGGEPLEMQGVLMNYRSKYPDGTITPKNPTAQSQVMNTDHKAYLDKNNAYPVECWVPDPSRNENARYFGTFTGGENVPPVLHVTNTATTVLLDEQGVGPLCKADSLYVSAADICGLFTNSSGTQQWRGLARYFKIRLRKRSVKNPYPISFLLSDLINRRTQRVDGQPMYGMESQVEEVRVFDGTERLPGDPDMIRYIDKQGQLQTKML

T2: BKV serotype I VLP (BK virus serotype I, UniProt P03088 1-362)
T2 chain: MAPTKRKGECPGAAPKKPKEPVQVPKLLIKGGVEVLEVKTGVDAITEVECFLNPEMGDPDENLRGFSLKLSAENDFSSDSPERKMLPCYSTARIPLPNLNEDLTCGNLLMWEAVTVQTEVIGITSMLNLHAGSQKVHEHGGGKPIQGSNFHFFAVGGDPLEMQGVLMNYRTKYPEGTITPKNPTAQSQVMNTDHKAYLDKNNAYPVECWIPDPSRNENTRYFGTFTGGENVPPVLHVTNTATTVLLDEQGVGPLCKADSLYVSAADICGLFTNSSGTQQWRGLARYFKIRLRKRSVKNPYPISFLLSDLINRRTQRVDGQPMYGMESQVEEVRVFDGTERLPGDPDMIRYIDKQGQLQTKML


Assays:
[1] = biological target: T3, JCV infectious virus, isolates Mad-1 and Mad-4 (VP1) (JC virus); test: cell-based or functional assay
JCV VLP (consensus) [2] = biological target: T4, JCV VLP (consensus) (JC virus, UniProt P03089 1-354); test: ELISA on coated JCV VLPs
T4 construct: also called JCV VLPs; JC virus VLPs

JCV VLP (consensus) [3] = biological target: T4, JCV VLP (consensus); test: ELISA on plates coated with JCV VLPs, OD 450 nm
[4] = biological target: T1, BKV serotype I infectious virus (VP1); test: cell-based or functional assay
BKV serotype I VLP = biological target: T2, BKV serotype I VLP
[5] = biological target: pooled RAV virus (BKV serotype I, 20 amino acid changes throughout VP1) (BK virus serotype I); test: cell-based or functional assay
[6] = biological target: T1, BKV serotype I infectious virus (VP1); test: cell-based or functional assay; remark: listed apart in the source
[7] = biological target: T5, BKV serotype II chimeric infectious virus (VP1 of isolate SB) (BK virus serotype II); test: cell-based or functional assay
[8] = biological target: BKV serotype III chimeric infectious virus (VP1 of isolate AS) (BK virus serotype III); test: cell-based or functional assay
[9] = biological target: BKV serotype IV chimeric infectious virus (VP1 of strain ITA-4) (BK virus serotype IV); test: cell-based or functional assay
[10] = biological target: T3, JCV infectious virus, isolates Mad-1 …; test: cell-based or functional assay; remark: listed apart in the source
[11] = biological target: T6, BKV serotype I VP1 pentamer (BK virus serotype I, UniProt P03088 30-297); test: SET (solution equilibrium titration) on VP1 pentamers
T6 construct: also called serotype I pentamers; BKV-VP1 serotype I pentameric protein

[12] = biological target: T7, BKV serotype II VP1 pentamer (BK virus serotype II, UniProt P14996 30-297); test: as above
T7 construct: also called serotype II pentamers

[13] = biological target: T8, BKV serotype III VP1 pentamer (BK virus serotype III, UniProt P14996 30-297); test: as above
T8 construct: also called serotype III pentamers

[14] = biological target: T9, BKV serotype IV VP1 pentamer (BK virus serotype IV, UniProt P14996 30-297); test: as above
T9 construct: also called serotype IV pentamers

[15] = biological target: T5, BKV serotype II chimeric infectious …; test: cell-based or functional assay; remark: listed apart in the source

| Binder | neutralization EC50 [6] | neutralization EC90 [6] | neutralization EC50 [7] | neutralization EC90 [7] | neutralization EC50 [8] | neutralization EC90 [8] | neutralization EC50 [9] | neutralization EC90 [9] | Kd [11] | Kd [12] | Kd [13] | Kd [14] | further results |
| --- | --- | --- | --- | --- | --- | --- | --- | --- | --- | --- | --- | --- | --- |
| 2077-28-2 (antibody, V domains shown) VH: EVQLQQSGPELVKPGASMKISCKASGYSFTGYTMNWVKQSHGKNLEWIGLFNPYNGGATYNQRFKGKATLTVDKSSSTAYMDLLSLTSEDSAVYYCTRLRKYGIGDDFFDYWGQGTTLTVSS VL: DIVMTQSHKFMSTSVGDRVSITCKASQDVGTAVAWYQQKPGQSPKLLIYWASTRHTGVPDRFTGSGSGTDFTLTISNVQSEDLADYFCQQYSTYTYTFGGGTKLEIK | – | – | – | – | – | – | – | – | – | – | – | – | neutralization EC50 [1]: 0.347 µg/mL; neutralization EC90 [1]: 6.82 µg/mL; IC50 (JCV VLP (consensus) [2]): 88 pM; EC50 (read off the curve) (JCV VLP (consensus) [3]): ~90 pM |
| 2081-36-8 (antibody, V domains shown) VH: QVQLQQSGAGLVRPGSSVKISCKTSGYAFSSYWMNWVKQRPGQGLEWIGQIYPGNGDTNYNGKFKGKATLTADKSSNTAYIQLNSLTSEDSAVYFCAREARQGYHYAMDYWGQGTSVTVSL VL: EIVFTQSPTTMAAFPGEKITITCSASSMINSNYLHWYQQKPGFSPKVLIYRTSNLASGVPARFSGTGSGTSFSLTIGTMEAEDVATYYCQQGSNIFTFGSGTKLEIK | – | – | – | – | – | – | – | – | – | – | – | – | neutralization EC50 [4]: 0.147 µg/mL; neutralization EC90 [4]: 0.909 µg/mL; EC50 (read off the curve) (BKV serotype I VLP): ~300 pM |
| P8D11 (antibody, human IgG1, lambda) heavy: not shown light: QSVLTQPPSVSVAPGKTARITCGGDNIGSRPVHWYQQKPGQAPILVVYDDSNRPSGIPERFSGSNSGNTATLTISRVEAGDEADYYCQVWSSSTDHPFGGGTKVTVLGQPKAAPSVTLFPPSSEELQANKATLVCLISDFYPGAVTVAWKADSSPVKAGVETTTPSKQSNNKYAASSYLSLTPEQWKSHRSYSCQVTHEGSTVEKTVAPTECS | 0.015 µg/mL | 0.24 µg/mL | 0.089 µg/mL | 6.34 µg/mL | 0.092 µg/mL | 0.53 µg/mL | 0.023 µg/mL | 0.39 µg/mL | – | – | – | – | EC50 of neutralization, fold change against wild-type virus [5]: 3.9 fold; neutralization EC50 [10]: 0.09 µg/mL; neutralization EC90 [10]: 2.76 µg/mL |
| P8D11B (antibody, V domains shown) VH: QVQLVESGGTLVQPGGSLRLSCAASGFTFKNYWMTWVRQAPGKGLEWVANIKKDGSEKYYVDSVRGRFTISRDNAKNSLFLQMNSLRPEDTAVYFCATVRSGRYFALDDWGQGTLVTVSS VL: QSVLTQPPSVSVAPGKTARITCGGDNIGSRPVHWYQQKPGQAPILVVYDDSNRPSGIPERFSGSNSGNTATLTISRVEAGDEADYYCQVWSSSTDHPFGGGTKVTVLG | 0.003 µg/mL | 0.3 µg/mL | 0.088 µg/mL | 1.93 µg/mL | 0.014 µg/mL | 0.5 µg/mL | 0.005 µg/mL | 0.54 µg/mL | 3.8 pM | 1.8 pM | 2.5 pM | 2.9 pM | – |
| P8D11E (antibody) heavy: not shown light: QSVLTQPPSVSVAPGKTARITCGGDNIGSRPVHWYQQKPGQAPILVVYDDSNRPSGIPERFSGSNSGNTATLTISRVEAGDEADYYCQVWSSSTDHPFGGGTKVTVLGQPKAAPSVTLFPPSSEELQANKATLVCLISDFYPGAVTVAWKADSSPVKAGVETTTPSKQSNNKYAASSYLSLTPEQWKSHRSYSCQVTHEGSTVEKTVAPTECS | 0.032 µg/mL | 0.11 µg/mL | 0.144 µg/mL | 2.52 µg/mL | 0.236 µg/mL | 0.9 µg/mL | 0.002 µg/mL | 0.087 µg/mL | 4.3 pM | 1.7 pM | 6 pM | 2.7 pM | – |
| P8D11D (antibody) heavy: not shown light: QSVLTQPPSVSVAPGKTARITCGGDNIGSRPVHWYQQKPGQAPILVVYDDSNRPSGIPERFSGSNSGNTATLTISRVEAGDEADYYCQVWSSSTDHPFGGGTKVTVLGQPKAAPSVTLFPPSSEELQANKATLVCLISDFYPGAVTVAWKADSSPVKAGVETTTPSKQSNNKYAASSYLSLTPEQWKSHRSYSCQVTHEGSTVEKTVAPTECS | 0.034 µg/mL | 0.15 µg/mL | 0.161 µg/mL | 1.64 µg/mL | 0.185 µg/mL | 0.87 µg/mL | 0.003 µg/mL | 0.063 µg/mL | 5 pM | 2 pM | 5 pM | 3.2 pM | – |
| P8D11A (antibody, V domains shown) VH: QVQLVESGGTLVQPGGSLRLSCAASGFTFSNYWMTWVRQAPGKGLEWVANIKKDGSEKYYVDSVRGRFTISRDNAKNSLFLQMNSLRPEDTAVYFCATVRSGRYFALDDWGQGTLVTVSS VL: QSVLTQPPSVSVAPGKTARITCGGDNIGSRPVHWYQQKPGQAPILVVYDDSNRPSGIPERFSGSNSGNTATLTISRVEAGDEADYYCQVWSSSTDHPFGGGTKVTVLG | 0.005 µg/mL | 0.19 µg/mL | 0.029 µg/mL | 8.68 µg/mL | 0.01 µg/mL | 0.59 µg/mL | 0.015 µg/mL | 0.064 µg/mL | 4.4 pM | 2.5 pM | 3.7 pM | 2.9 pM | – |
| P8D11C (antibody, V domains shown) VH: QVQLVESGGTLVQPGGSLRLSCAASGFTFQNYWMTWVRQAPGKGLEWVANIKKDGSEKYYVDSVRGRFTISRDNAKNSLFLQMNSLRPEDTAVYFCATVRSGRYFALDDWGQGTLVTVSS VL: QSVLTQPPSVSVAPGKTARITCGGDNIGSRPVHWYQQKPGQAPILVVYDDSNRPSGIPERFSGSNSGNTATLTISRVEAGDEADYYCQVWSSSTDHPFGGGTKVTVLG | 0.0003 µg/mL | 0.34 µg/mL | 0.18 µg/mL | 0.5 µg/mL | 0.049 µg/mL | 0.51 µg/mL | 0.005 µg/mL | 0.54 µg/mL | 4.5 pM | 2.7 pM | 4.8 pM | 2.7 pM | – |
| NEG447A (antibody, human IgG1, lambda, V domains shown) VH: QVQLQESGPGLVKPSETLSLTCTVSGGSISRDYWSWVRQPPGAGLEWIGNIYYSGSTNYNPSLKSRVTISVATNKKQFSLKLTSVTAADTAVYYCARVPGCSSTSCIDGWFDPWGQGILVTVSS VL: QSVLTQPPSVSAAPGQKVTISCSGSSSNIGNTYVSWYQQLPGTAPKLLIYDNNKRPSGIPDRFSGSKSGTSATLGITGLQTGDEADYYCGTWDSSLSAWVFGGGTRLTVLG | 0.0001 µg/mL | 0.094 µg/mL | 0.11 µg/mL | 0.84 µg/mL | > 100 µg/mL | > 100 µg/mL | 0.011 µg/mL | 0.26 µg/mL | – | – | – | – | activity (EC90), fold more potent than NEG447 [15]: ~8 fold |

Source: patent US20170088605A1 (Novartis, published 2017)
